Among the data in ChEMBL document CHEMBL3526099, “Metabolism of triethylenetetramine and 1,12-diamino-3,6,9-triazadodecane by the spermidine/spermine-N(1)-acetyltransferase and thialysine acetyltransferase” (Drug Metab Dispos, 2013) are Km and Vmax values, retold here.

One data set concerns NCCCNCCNCCNCCN
Description: Drug metabolism assessed as mouse SSAT1-mediated metabolite formation. In kind it is ADME.

For a further data set, the system named is NCCNCCNCCN
Description: not read.

Chain of Diamine acetyltransferase 1 (Homo sapiens) (chain, as listed by the source): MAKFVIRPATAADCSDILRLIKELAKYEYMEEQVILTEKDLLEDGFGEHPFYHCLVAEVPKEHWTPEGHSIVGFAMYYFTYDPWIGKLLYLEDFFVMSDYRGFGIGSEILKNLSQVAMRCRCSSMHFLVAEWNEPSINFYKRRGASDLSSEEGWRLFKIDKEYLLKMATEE
Chain of Diamine acetyltransferase 1 (Mus musculus) (chain, as listed by the source): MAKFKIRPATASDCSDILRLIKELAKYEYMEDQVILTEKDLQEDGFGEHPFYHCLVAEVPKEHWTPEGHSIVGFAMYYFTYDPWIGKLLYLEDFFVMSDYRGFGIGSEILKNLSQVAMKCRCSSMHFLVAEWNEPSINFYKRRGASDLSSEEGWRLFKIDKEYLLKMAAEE

In general, Km refers to the substrate concentration at which the rate is half of its maximum. The term Vmax denotes the rate approached at saturating substrate. Turning to “Diamine acetyltransferase 1 (Mus musculus)”, in the data set on NCCCNCCNCCNCCN, the Km turned out to be 106 µM and the Vmax is 1.17 µmol/min/mg.
Regarding “Diamine acetyltransferase 1 (Homo sapiens)”, in the data set with NCCNCCNCCN, the Km was determined as 83 µM and the Vmax was 0.9 µmol/min/mg.
